Usually stoichiometry N stands for the number of molecules, sites or subunits per partner or assembly.

The experiment addresses Gorilla bocavirus 1 (GBoV1) VP3, assembled as virus-like particles (VP3-only capsids) (Gorilla bocavirus 1). Briefly: cryo-EM structure; purified GBoV1 VLPs (wild-type and VP3-only) in 1x PBS vitrified on holey carbon grids; Titan Krios 300 kV; cisTEM reconstruction with imposed icosahedral symmetry; 2.76 Å.

Turning to “Gorilla bocavirus 1 (GBoV1) VP3, assembled as virus-like particles (VP3-only capsids) (natural protein)”, the stoichiometry N came to 60.

The values above are taken from publication PMC7924616.
